Assay results: publication PMC4200780, “Biochemical Characterization of a Carboxylesterase from the Archaeon Pyrobaculum sp. 1860 and a Rational Explanation of Its Substrate Specificity and Thermostability” (International Journal of Molecular Sciences, 2014)

Key:
Test in all cases: p-nitrophenol release, Lineweaver-Burk
Format in all cases: biochemical, Pyrobaculum ferrireducens
[1] = substrate: CC(=O)Oc1ccc([N+](=O)[O-])cc1; settings: 50 mM Tris-HCl pH 9.0, 80 °C
Excerpt: (§1) p-nitrophenol release, Lineweaver-Burk on rP186_1588 ([…]_1588)

[2] = substrate: CCCC(=O)Oc1ccc([N+](=O)[O-])cc1; settings: 50 mM Tris-HCl pH 9.0, 80 °C
Excerpt: as §1

[3] = substrate: CCCCCCCC(=O)Oc1ccc([N+](=O)[O-])cc1; settings: 50 mM Tris-HCl pH 9.0, 80 °C
Excerpt: as §1

[4] = substrate: CCCCCCCCCC(=O)Oc1ccc([N+](=O)[O-])cc1; settings: 50 mM Tris-HCl pH 9.0, 80 °C, substrate tested at 0.1-3 mM only
Excerpt: as §1

B1: rP186_1588 (P186_1588) (Pyrobaculum ferrireducens) (protein)
chain: MSEKYVAVEGRRVRYLVGGSGRPVVLLHGWSFNADTWVESGVFNSLAGHFAVYAIDMPYGIRTKSERFQAPRREYAVFLRRVLDALDLADPPLVGPSASGEVVLWYVAKRLPTRAAVVVGPVGLAGELLEELRGAGVPILAVWGEGDEVSPPSRASLLRDVAKVVILRDAGHAAYLDKPGEFVEVVLDFLRGVY
notes: full length 194 aa (21,131 Da calculated, ~23 kDa on SDS-PAGE), His-tagged, synthetic gene in pET-28a(+) NdeI/BamHI, E. coli BL21(DE3), Ni-NTA purified, tag removal not mentioned
Km [1]: 350 ± 10 µM | kcat [1]: 11.7 ± 0.48 s⁻¹ | kcat/Km [1]: 33300 ± 1370 M⁻¹ s⁻¹ | Km [2]: 1270 ± 40 µM | kcat [2]: 9.12 ± 0.62 s⁻¹ | kcat/Km [2]: 7180 ± 190 M⁻¹ s⁻¹ | Km [3]: 2640 ± 140 µM | kcat [3]: 6.36 ± 0.28 s⁻¹ | kcat/Km [3]: 2410 ± 110 M⁻¹ s⁻¹ | Km [4]: 4990 ± 210 µM | kcat [4]: 6.19 ± 0.33 s⁻¹ | kcat/Km [4]: 1240 ± 70 M⁻¹ s⁻¹
